Biological target: SARS-CoV-2 Spike ectodomain (pre-fusion, with proline mutations) (SARS-CoV-2) (UniProt P0DTC2)

EY6A IgG (antibody) showed a plaque reduction neutralisation test (Oxford), SARS-CoV-2, ND50 of 30 µg/mL.

From paper doi:10.1101/2020.06.12.148387
